According to publication PMC3590443 (Nature structural & molecular biology, 2012):
Numbering of substitutions follows the chain as printed. Names and notes keep the numbering of the source.

T1: PlxnA2_(1-4) F275N (mouse, UniProt P70207 35-703, F275N)
T1 sequence (looked up): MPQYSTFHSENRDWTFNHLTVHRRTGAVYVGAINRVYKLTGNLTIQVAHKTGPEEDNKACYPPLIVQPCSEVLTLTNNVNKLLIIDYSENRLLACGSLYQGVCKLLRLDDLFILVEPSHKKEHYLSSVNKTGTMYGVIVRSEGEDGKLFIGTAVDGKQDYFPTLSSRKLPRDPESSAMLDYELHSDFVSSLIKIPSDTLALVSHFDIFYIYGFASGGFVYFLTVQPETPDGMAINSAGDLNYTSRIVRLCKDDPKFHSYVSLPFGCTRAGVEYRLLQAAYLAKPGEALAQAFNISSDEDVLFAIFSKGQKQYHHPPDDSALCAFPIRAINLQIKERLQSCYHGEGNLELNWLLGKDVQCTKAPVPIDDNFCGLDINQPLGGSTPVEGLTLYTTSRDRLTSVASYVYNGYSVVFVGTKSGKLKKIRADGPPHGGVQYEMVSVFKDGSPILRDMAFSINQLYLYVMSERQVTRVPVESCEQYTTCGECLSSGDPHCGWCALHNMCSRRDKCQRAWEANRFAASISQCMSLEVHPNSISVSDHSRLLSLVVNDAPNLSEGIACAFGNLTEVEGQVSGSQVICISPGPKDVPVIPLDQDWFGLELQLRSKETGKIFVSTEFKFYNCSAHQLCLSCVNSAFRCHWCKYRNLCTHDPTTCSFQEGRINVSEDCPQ

T2: Nrp1_(1-4) P73A H74S (mouse, UniProt P97333 22-586, P73A | H74S)
T2 sequence (looked up): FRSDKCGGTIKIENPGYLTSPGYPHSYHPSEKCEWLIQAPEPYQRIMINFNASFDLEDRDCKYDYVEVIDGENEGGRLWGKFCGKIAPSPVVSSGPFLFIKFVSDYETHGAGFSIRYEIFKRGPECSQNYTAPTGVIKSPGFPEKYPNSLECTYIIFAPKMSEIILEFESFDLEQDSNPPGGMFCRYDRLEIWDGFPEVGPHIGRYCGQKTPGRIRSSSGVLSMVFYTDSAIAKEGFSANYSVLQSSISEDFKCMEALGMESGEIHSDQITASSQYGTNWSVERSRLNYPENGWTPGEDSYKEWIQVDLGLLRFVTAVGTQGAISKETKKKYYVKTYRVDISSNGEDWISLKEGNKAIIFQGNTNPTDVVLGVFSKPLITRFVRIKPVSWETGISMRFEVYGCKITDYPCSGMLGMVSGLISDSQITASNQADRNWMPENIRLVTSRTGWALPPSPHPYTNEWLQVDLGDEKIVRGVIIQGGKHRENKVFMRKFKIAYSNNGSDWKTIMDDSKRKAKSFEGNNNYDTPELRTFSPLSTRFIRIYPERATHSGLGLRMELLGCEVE

T3: Sema3AS-F with Nrp1_(1-4) (combination in the experiment with EDTA) (mouse, UniProt O08665 21-555; P97333 22-586)
T3 sequence (looked up) 1: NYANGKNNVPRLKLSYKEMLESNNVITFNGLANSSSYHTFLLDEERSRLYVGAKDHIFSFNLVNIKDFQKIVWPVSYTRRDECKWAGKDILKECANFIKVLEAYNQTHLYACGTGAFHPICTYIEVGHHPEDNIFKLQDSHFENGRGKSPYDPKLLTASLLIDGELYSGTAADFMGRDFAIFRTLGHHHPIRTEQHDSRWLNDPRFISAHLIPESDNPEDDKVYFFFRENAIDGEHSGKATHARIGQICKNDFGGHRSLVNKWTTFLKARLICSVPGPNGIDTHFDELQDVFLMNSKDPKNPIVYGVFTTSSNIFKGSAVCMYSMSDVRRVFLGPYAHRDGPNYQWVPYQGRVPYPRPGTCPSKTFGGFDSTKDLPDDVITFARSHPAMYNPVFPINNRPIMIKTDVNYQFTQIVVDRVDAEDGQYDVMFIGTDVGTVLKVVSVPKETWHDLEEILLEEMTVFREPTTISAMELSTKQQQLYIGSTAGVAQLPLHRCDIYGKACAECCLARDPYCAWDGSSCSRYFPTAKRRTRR
T3 sequence (looked up) 2: T2 sequence (looked up) with A52P, S53H

B1: Nrp1_(1-4) (mouse Nrp1 residues 22-586) (domain or fragment, UniProt P97333 22-586, looked up)
chain: T2 sequence (looked up) with A52P, S53H
B2: Sema3AS-P (mouse Sema3A residues 21-568, furin site mutated R551A and R555A) (domain or fragment, UniProt O08665 21-568, looked up)
chain: NYANGKNNVPRLKLSYKEMLESNNVITFNGLANSSSYHTFLLDEERSRLYVGAKDHIFSFNLVNIKDFQKIVWPVSYTRRDECKWAGKDILKECANFIKVLEAYNQTHLYACGTGAFHPICTYIEVGHHPEDNIFKLQDSHFENGRGKSPYDPKLLTASLLIDGELYSGTAADFMGRDFAIFRTLGHHHPIRTEQHDSRWLNDPRFISAHLIPESDNPEDDKVYFFFRENAIDGEHSGKATHARIGQICKNDFGGHRSLVNKWTTFLKARLICSVPGPNGIDTHFDELQDVFLMNSKDPKNPIVYGVFTTSSNIFKGSAVCMYSMSDVRRVFLGPYAHRDGPNYQWVPYQGRVPYPRPGTCPSKTFGGFDSTKDLPDDVITFARSHPAMYNPVFPINNRPIMIKTDVNYQFTQIVVDRVDAEDGQYDVMFIGTDVGTVLKVVSVPKETWHDLEEILLEEMTVFREPTTISAMELSTKQQQLYIGSTAGVAQLPLHRCDIYGKACAECCLARDPYCAWDGSSCSRYFPTAKARTRAQDIRNGDPLTHCS
B3: Sema3AS-P L353N P355S (domain or fragment, mouse, UniProt O08665 21-568, looked up)
chain: B2 chain with L333N, P335S
B4: PlxnA2_(1-4) (mouse PlxnA2 residues 35-703) (domain or fragment, UniProt P70207 35-703, looked up)
chain: T1 sequence (looked up) with N241F

How the values were obtained:
Experiment in all cases: SPR
PlxnA2_(1-4) F275N = biological target: T1, PlxnA2_(1-4) F275N
Nrp1_(1-4) P73A H74S = biological target: T2, Nrp1_(1-4) P73A H74S
[1] = biological target: B1
[2] = biological target: T3, Sema3AS-F with Nrp1_(1-4) (combination …)

Binder: B1
binding result (PlxnA2_(1-4) F275N): binds

Binder: B2
binding result (Nrp1_(1-4) P73A H74S): binds

Binder: B3
binding result [1]: binds

Binder: B4
binding result [2]: binds
